This is an account of results in the supplement of paper PMC10567573.

B1: CCND2 (parent)
chain: YFKCVQKDIQPYMRRMVATWMLEV
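Also: lentivirally expressed fusions sorted by FACS into six bins by GFP to DsRed ratio, PSI derived from sequencing read proportions per bin multiplied by bin number.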

In this data set the parent is B1. The data set is described as follows: protein stability index of a GFP-peptide fusion (GPS, HEK-293T) (PSI 1-6); higher = more stable. The conditions noted are these: c terminus: a fixed tail appended.
YFKCVQKDIQPYMRRMVAVWMLEV: the protein stability index came out at 2.61.
With YFKCVQKDIQPYMRRMVAEWMLEV, the protein stability index was 1.44.
Take YFKCVQKDIQPYMRRMVAQWMLEV: the protein stability index stood at 1.75.
Consider YFKCVQKDIQPYMRRMVAAWMLEV, for which the protein stability index was 3.42.
Take YFKCVQKDIQPYMRRMVAKWMLEV: the protein stability index worked out at 3.
For the variant YFKCVQKDIQPYMRRMVAYWMLEV, the protein stability index was 3.88.
Consider YFKCVQKDIQPYMRRMVAMWMLEV, for which the protein stability index worked out at 1.84.
Regarding YFKCVQKDIQPYMRRMVAGWMLEV, the protein stability index amounted to 2.5.
For YFKCVQKDIQPYMRRMVAHWMLEV the value was 3.25.
For YFKCVQKDIQPYMRRMVANWMLEV the value was 3.9; for RFKCVQKDIQPYMRRMVATWMLEV, 1.87.
As for WFKCVQKDIQPYMRRMVATWMLEV, the protein stability index is 2.82.
Regarding IFKCVQKDIQPYMRRMVATWMLEV, the protein stability index came to 2.47.
For MFKCVQKDIQPYMRRMVATWMLEV the value was 2.11; for CFKCVQKDIQPYMRRMVATWMLEV, 1.94; for KFKCVQKDIQPYMRRMVATWMLEV, 3.54.
As for AFKCVQKDIQPYMRRMVATWMLEV, the figure is 3.09; as for EFKCVQKDIQPYMRRMVATWMLEV, 1.88; as for YFKCVQKDIQPCMRRMVATWMLEV, 2.89.
As for YFKCVQKDIQPHMRRMVATWMLEV, the figure is 2.54; as for YFKCVQKDIQPPMRRMVATWMLEV, 1.89.
As to YFKCVQKDIQPNMRRMVATWMLEV, the protein stability index was found to be 2.38.
In the case of YFKCVQKDIQPTMRRMVATWMLEV, the protein stability index turned out to be 2.66.
YFKCVQKDIQPVMRRMVATWMLEV: the protein stability index was 3.11.
As to YFKCVQKDIQPAMRRMVATWMLEV, the protein stability index was found to be 3.33.
Consider YFKCVQKDIQPKMRRMVATWMLEV, for which the protein stability index turned out to be 3.07.
With YFKCVQKDIQPIMRRMVATWMLEV, the protein stability index came out at 2.54.
As for YSKCVQKDIQPYMRRMVATWMLEV, the protein stability index worked out at 3.5.
Take YWKCVQKDIQPYMRRMVATWMLEV: the protein stability index came to 2.75.
Regarding YTKCVQKDIQPYMRRMVATWMLEV, the protein stability index worked out at 2.61.
For YYKCVQKDIQPYMRRMVATWMLEV the value was 2.68; for YMKCVQKDIQPYMRRMVATWMLEV, 1.89.
With YFKCVQKDIQPYMRRMVATWALEV, the protein stability index was found to be 1.67.
On to YFKCVQKDIQPYMRRMVATWFLEV, for which the protein stability index was 1.96.
For YFKCVQKDIQPYMRRMVATWNLEV the value was 2.54; for YFKCVQKDIQPYMRRMVATWDLEV, 2.43; for YFKCVQKDIQPYMRRMVATWWLEV, 4.25.
On to YFKCVQKDIQPYMRRMVATWKLEV, for which the protein stability index is 3.19.
YFKCVQKDIQPYMRRMVATWSLEV: the protein stability index is 3.49.
With YFKCVQKDIQPYMRRMVATWQLEV, the protein stability index is 1.76.
As to YFKCVQKDIQPYMRRMVLTWMLEV, the protein stability index came out at 3.85.
As for YFKCVQKDIQPYMRRMVNTWMLEV, the figure is 3.36; as for YFKCVQKDIQPYMRRMVDTWMLEV, 2.37; as for YFKCVQKDIQPYMRRMVKTWMLEV, 2.69.
Consider YFKCVQKDIQPYMRRMVETWMLEV, for which the protein stability index was determined as 3.2.
With YFKCVQKDINPYMRRMVATWMLEV, the protein stability index was found to be 3.3.
YFKCVQKDIGPYMRRMVATWMLEV: the protein stability index worked out at 2.42.
Turning to YFKCVQKDIMPYMRRMVATWMLEV, the protein stability index was 2.06.
Take YFKCVQKDISPYMRRMVATWMLEV: the protein stability index came out at 3.22.
In the case of YFKCVQKDIIPYMRRMVATWMLEV, the protein stability index is 3.17.
For YFKCVQKDICPYMRRMVATWMLEV the value was 3.12.
For the variant YFKCVQKDIAPYMRRMVATWMLEV, the protein stability index is 3.8.
Consider YFKCVQKDIWPYMRRMVATWMLEV, for which the protein stability index is 3.11.
For YFKCVQKDIRPYMRRMVATWMLEV the value was 2.02; for YFKCVQKDIHPYMRRMVATWMLEV, 2.84; for YFKCVQKDIQPYMYRMVATWMLEV, 3.2.
Take YFKCVQKDIQPYMTRMVATWMLEV: the protein stability index worked out at 4.32.
Regarding YFKCVQKDIQPYMVRMVATWMLEV, the protein stability index stood at 2.55.
For YFKCVQKDIQPYMIRMVATWMLEV, the protein stability index worked out at 2.63.
As for YFKCVQKDIQPYMARMVATWMLEV, the figure is 3.47; as for YFKCVQKDIQPYMCRMVATWMLEV, 2.77.
For the variant YFKCVQKDIQPYMWRMVATWMLEV, the protein stability index turned out to be 1.74.
For YFKCVQKDSQPYMRRMVATWMLEV, the protein stability index turned out to be 3.49.
As for YFKCVQKDFQPYMRRMVATWMLEV, the protein stability index was determined as 2.47.
On to YFKCVQKDLQPYMRRMVATWMLEV, for which the protein stability index amounted to 3.16.
As to YFKCVQKDEQPYMRRMVATWMLEV, the protein stability index is 3.71.
Consider YFKCVQKDMQPYMRRMVATWMLEV, for which the protein stability index came out at 3.79.
On to YFKCVQKDRQPYMRRMVATWMLEV, for which the protein stability index was 1.77.
Consider YFKCVQKDKQPYMRRMVATWMLEV, for which the protein stability index is 1.52.
For YFKCVQKDIQPYMRRMVATEMLEV the value was 3.61; for YFKCVQKDIQPYMRRMVATAMLEV, 2.36.
Regarding YFKCVQKDIQPYMRRMVATSMLEV, the protein stability index amounted to 2.
In the case of YFKCVQKDIQPYMRRMVATCMLEV, the protein stability index was 3.44.
In the case of YFKCVQKDIQPYMRRMVATHMLEV, the protein stability index amounted to 2.88.
For YFKCVQKDIQPYMRRMVATTMLEV the value was 2.18; for YFKCVQKDIQPYMRRMVATYMLEV, 3.49.
Regarding YFKCVQKDIQPYMRRMVATLMLEV, the protein stability index was 4.58.
As for YFKCVQKDIQPYMRRMVATKMLEV, the protein stability index was determined as 1.84.
YFKCVQKDIQPYMRYMVATWMLEV: the protein stability index is 2.81.
For YFKCVQKDIQPYMRWMVATWMLEV the value was 3.97.
On to YFKCVQKDIQPYMRAMVATWMLEV, for which the protein stability index worked out at 1.77.
On to YFKCVQKDIQPYMREMVATWMLEV, for which the protein stability index worked out at 3.42.
With YFKCVQKDIQPYMRLMVATWMLEV, the protein stability index was found to be 2.33.
For YFKCVQKDIQPYMRSMVATWMLEV the value was 2.55; for YFKCVQKDIQPYMRNMVATWMLEV, 3.95.
Turning to YFKCVQKDIQPYMRRMLATWMLEV, the protein stability index was 2.28.
Consider YFKCVQKDIQPYMRRMAATWMLEV, for which the protein stability index stood at 1.55.
On to YFKCVQKDIQPYMRRMSATWMLEV, for which the protein stability index was 1.77.
For YFKCVQKDIQPYMRRMIATWMLEV, the protein stability index stood at 2.65.
Consider YFKCVQKDIQPYMRRMCATWMLEV, for which the protein stability index turned out to be 3.2.
In the case of YFKCVQKDIQPYMRRMHATWMLEV, the protein stability index came to 3.14.
Consider YFKCVQKDIQPYMRRMRATWMLEV, for which the protein stability index turned out to be 3.03.
For YFKCVQKDIQPYMRRMQATWMLEV the value was 2.63; for YFKCVQKDIQPYMRRMTATWMLEV, 3.15.
